Reference: PMC8875297
Where two headings read alike, the source gives them in different places.

| Substance | degradation_or_half_life (ubiquitination at K269) | degradation_or_half_life (phosphorylation at T286) | other (phosphorylation at T286) |
| --- | --- | --- | --- |
| cyclin D1: AMBRA1 depletion (siRNA, AMBRA1-/-, auxin-inducible degron) | decreases |  |  |
| cyclin D1: MLN4924 | decreases |  |  |
| cyclin D1: T286A |  | decreases | abolishes |
